According to patent US20210380679A1 (INHIBRX BIOSCIENCES, published 2021):
Residue numbers refer to the chain shown, from its start.

Molecular target: T1, human DLL3 (Delta-like ligand 3) (human, UniProt Q9NYJ7 27-618)
T1 construct: endogenous on SHP-77 cells; also called cell-surface DLL3
T1 sequence: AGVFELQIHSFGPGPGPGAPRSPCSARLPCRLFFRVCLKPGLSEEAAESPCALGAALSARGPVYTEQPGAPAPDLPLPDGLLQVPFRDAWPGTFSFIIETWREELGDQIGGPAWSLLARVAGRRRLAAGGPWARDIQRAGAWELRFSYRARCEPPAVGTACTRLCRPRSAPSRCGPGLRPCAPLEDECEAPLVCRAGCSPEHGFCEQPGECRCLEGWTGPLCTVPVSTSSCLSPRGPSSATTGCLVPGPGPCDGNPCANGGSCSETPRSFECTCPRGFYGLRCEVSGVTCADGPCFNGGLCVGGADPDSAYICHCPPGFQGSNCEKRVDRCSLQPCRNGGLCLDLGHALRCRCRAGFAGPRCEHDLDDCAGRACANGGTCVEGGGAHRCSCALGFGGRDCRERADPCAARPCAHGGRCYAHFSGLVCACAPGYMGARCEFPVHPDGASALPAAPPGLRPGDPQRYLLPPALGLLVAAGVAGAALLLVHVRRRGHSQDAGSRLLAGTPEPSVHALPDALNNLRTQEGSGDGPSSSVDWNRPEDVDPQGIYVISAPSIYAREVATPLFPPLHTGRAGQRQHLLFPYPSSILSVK
Assay: flow cytometry, sdAb-Fc titrated on SHP-77 cells (DLL3 positive), APC anti-human Fc secondary
Experimental: FIGS. 2A-L set forth a series of graphs depicting the ability of sdAb and humanized variants thereof targeting DLL3 to bind cell surface DLL3.
Specificity and relative affinity were assessed for purified sdAb-Fcs on DLL3-expressing cells. […] A titration series of the fusion protein was incubated with the DLL3-expressing cell lines (approximately 2.5×10⁴ to 5×10⁴ cells/well) for 30 minutes at 4 degrees Celsius in FACS Buffer (PBS 1% BSA, 0.1% NaN₃ pH 7.4) in 96-well plates. Following three wash steps in FACS buffer, an APC-conjugated anti-human Fcγ specific secondary antibody (Jackson ImmunoResearch) was added and incubated for 30 minutes at 4 degrees Celsius. Following three additional wash steps in FACS buffer bound antibody was detected via flow cytometry (IQue Intellicyte).

B1: hz6C5v1 (Fc fusion)
VHH: EVQLVESGGGEVQPGGSLRLSCAASEITFSDKTVGWYRQAPGKQRVLVAVISNVDSTNYAESVKGRFTISRDNAKNTLYLQMSSLRAEDTAVYYCHARDFENEYWGQGTLVTVKP
notes: tested as VHH-human Fc; Fc not specified
EC50 (read off the curve): ~2 nM

B2: hz8E7v4 (Fc fusion)
VHH: B1 VHH with T28I, F29T, T33S, Y37W, V46N, V50G, D55G, E61Q, Y79F, H96Y
notes: as for B1
binding result: binds

B3: hz6F1v4 (Fc fusion)
VHH: B1 VHH with A23G, T28I, L78V, H96Y, N102S
notes: as for B1
binding result: binds

B4: hz6F1v2 (Fc fusion)
VHH: B1 VHH with T28I, L78V, H96Y, N102S
notes: as for B1
binding result: binds

B5: hz6F1v5 (Fc fusion)
VHH: B1 VHH with T28I, L78V, H96Y, N102S, Q107R, L110Q
notes: as for B1
binding result: binds

B6: hz6C5v3 (Fc fusion)
VHH: B1 VHH with E61H, L78V
notes: as for B1
binding result: binds

B7: hz8E7v3 (Fc fusion)
VHH: EVQLVESGGGEVQPGGSLRLSCGPSEIITSDKSVGWWRQAPGKQRNLVAGISNVGSTNYAQSVKGRFTISRDNAKNTLYLQMSSLRAEDTAVYYCYARDFENEYWGQGTLVTVKP
notes: as for B1
binding result: binds

B8: hz6F1v3 (Fc fusion)
VHH: B1 VHH with T28I, E61Q, L78V, H96Y, N102S
notes: as for B1
binding result: binds

B9: hz6C5v4 (Fc fusion)
VHH: B1 VHH with A23G, L78V
notes: as for B1
binding result: binds

B10: hz6F1v7 (Fc fusion)
VHH: B1 VHH with T28I, S56A, L78V, H96Y, N102S
notes: as for B1
binding result: binds

B11: hz6F1v1 (Fc fusion)
VHH: B1 VHH with T28I, H96Y, N102S
notes: as for B1
EC50 (read off the curve): ~0.5 nM

B12: hz6F1v6 (Fc fusion)
VHH: B1 VHH with T28I, D55E, L78V, H96Y, N102S
notes: as for B1
binding result: binds

B13: hz6C5v5 (Fc fusion)
VHH: B1 VHH with D55E, L78V
notes: as for B1
binding result: binds

B14: hz8E7v1 (Fc fusion)
VHH: B7 VHH with G23A, P24A, Q61E
notes: as for B1
binding result: binds

B15: hz6C5v2 (Fc fusion)
VHH: B1 VHH with L78V
notes: as for B1
binding result: binds

B16: hz8E7v2 (Fc fusion)
VHH: B7 VHH with G23A, P24A
notes: as for B1
binding result: binds

B17: hz5A7v1 (Fc fusion)
VHH: EVQLVESGGGEVQPGGSLRLSCAASGSDFSINAIGWYRQAPGKQRDMVAGFTGDGVTTYAESVKGRFTISRDNAKNTVYLQMSSLRAEDTAVYYCAADVKIGGDYEWFWGQGTLVTVKP
notes: as for B1
binding result: binds

B18: hz5A7v6 (Fc fusion)
VHH: B17 VHH with A40P
notes: as for B1
binding result: binds

B19: hz5A7v5 (Fc fusion)
VHH: B17 VHH with M47W
notes: as for B1
binding result: binds

B20: hz5A7v3 (Fc fusion)
VHH: B17 VHH with D54E
notes: as for B1
binding result: binds

B21: hz5A7v2 (Fc fusion)
VHH: B17 VHH with G55T
notes: as for B1
binding result: binds

B22: L5A7 (Fc fusion)
VHH: B17 VHH with E6Q, E11L, E61D, S83N, R86K, A87P, L114Q
notes: as for B1
binding result: binds

B23: hz5A7v4 (Fc fusion)
VHH: B17 VHH with M47L
notes: as for B1
binding result: binds

B24: 3C5 (Fc fusion)
VHH: QVQLVQSGGGLVQAGGSLRLSCAASGSIFSINAMGWYRQPPGKQRELVAGFTGDGSTKYADSVKGRFTISRDNAKNTVYLQMNSLKPEDTAVYYCAADVQLLNSDYEFYWGQGTQVTVKP
notes: as for B1
binding result: binds

B25: L6C5 (Fc fusion)
VHH: QVQLQESGGGLVQTGGSLTLSCGASEITFSDKTVGWYRQAPGKQRVLVAVISNVDSTNYAHSVKGRFTISRDNAKNTVYLQMNSLKPEDTAVYYCHARDFENEYWGRGTQVTVKP
notes: as for B1
binding result: binds

B26: hz10D9v7 (Fc fusion)
VHH: EVQLVESGGGEVQPGGSLRLSCAASGSIFSINAMGWYRQAPGKQRELVAGFTGDTNTIYAESVKGRFTISRDNAKNTVYLQMSSLRAEDTAVYYCAADVQLFSRDYEFYWGQGTLVTVKP
notes: as for B1
binding result: binds

B27: hz10D9v1 (Fc fusion)
VHH: B26 VHH with F29L, L47M, T55G
notes: as for B1
binding result: binds

B28: hz3C5v8 (Fc fusion)
VHH: B26 VHH with T55G, N56S, I58K, F102L, S103N, R104T
notes: as for B1
binding result: binds

B29: hz10D9v6 (Fc fusion)
VHH: B26 VHH with F29L, A40P
notes: as for B1
binding result: binds

B30: hz3C5v4 (Fc fusion)
VHH: B26 VHH with D54E, T55G, N56S, I58K, F102L, S103N, R104S
notes: as for B1
binding result: binds

B31: hz3C5v7 (Fc fusion)
VHH: B26 VHH with T55G, N56S, I58K, F102L, S103Q, R104S
notes: as for B1
binding result: binds

B32: hz3C5v1 (Fc fusion)
VHH: B26 VHH with T55G, N56S, I58K, F102L, S103N, R104S
notes: as for B1
binding result: binds

B33: hz10D9v3 (Fc fusion)
VHH: B26 VHH with F29L, L47M, D54E, T55G
notes: as for B1
binding result: binds

B34: hz10D9v2 (Fc fusion)
VHH: B26 VHH with F29L, T55G
notes: as for B1
binding result: binds

B35: hz3C5v6 (Fc fusion)
VHH: B26 VHH with T55G, N56S, I58K, F102L, S103T, R104S
notes: as for B1
binding result: binds

B36: hz10D9v5 (Fc fusion)
VHH: B26 VHH with F29L
notes: as for B1
binding result: binds

B37: hz3C5v5 (Fc fusion)
VHH: B26 VHH with T55G, N56S, I58K, F102L, R104S
notes: as for B1
binding result: binds

B38: hz10D9v4 (Fc fusion)
VHH: B26 VHH with F29L, L47M
notes: as for B1
binding result: binds

B39: hz3C5v2 (Fc fusion)
VHH: B26 VHH with A40P, T55G, N56S, I58K, F102L, S103N, R104S
notes: as for B1
EC50 (read off the curve): ~0.7 nM

B40: hz3G3v1 (Fc fusion)
VHH: EVQLVESGGGEVQPGGSLRLSCAASGSIFSINAMGWYRQAPGKQRELVAGFTGDGMTKYAESVKGRFTISRDNAKNTVYLQMSSLRAEDTAVYYCAADVFTDRDHVDWYWGQGTLVTVKP
notes: as for B1
binding result: binds

B41: hz3C5v3 (Fc fusion)
VHH: B26 VHH with N56S, I58K, F102L, S103N, R104S
notes: as for B1
binding result: binds

B42: L3G3 (Fc fusion)
VHH: QVQLVQSGGGLVQAGGSLRLSCAASGSIFSINAMGWYREAPGKQRELVAGFTGDGMTKYAESVKGRFTFSRDNAKNTVYLQMNSLKPEDTGVYYCAADVFTDRDHVDWYWGQGTQVTVKP
notes: as for B1
binding result: binds

B43: hz3G3v2 (Fc fusion)
VHH: B40 VHH with Q39E
notes: as for B1
binding result: binds

B44: hz3G3v4 (Fc fusion)
VHH: B40 VHH with A91G
notes: as for B1
binding result: binds

B45: hz3G3v3 (Fc fusion)
VHH: B40 VHH with I69F
notes: as for B1
binding result: binds
